Laboratory results taken from the supplement of paper PMC11908140.

B1: library; numbered along this chain (parent)
chain: MRKPRAAVGSGHRKQAASQEGRQKHAKNNSQAKPSACDGLARQPEEVVLQASVSSYHLFRDVAEVTAFRGSLLSWYDQEKRDLPWRRRAEDEMDLDRRAYAVWVSEVMLQQTQVATVINYYTGWMQKWPTLQDLASASLEEVNQLWAGLGYYSRGRRLQEGARKVVEELGGHMPRTAETLQQLLPGVGRYTAGAIASIAFGQATGVVDGNVARVLCRVRAIGADPSSTLVSQQLWGLAQQLVDPARPGDFNQAAMELGATVCTPQRPLCSQCPVESLCRARQRVEQEQLLASGSLSGSPDVEECAPNTGQCHLCLPPSEPWDQTLGVVNFPRKASRKPPREESSATCVLEQPGALGAQILLVQRPNSGLLAGLWEFPSVTWEPSEQLQRKALLQELQRWAGPLPATHLRHLGEVVHTFSHIKLTYQVYGLALEGQTPVTTVPPGARWLTQEEFHTAAVSTAMKKVFRVYQGQQPGTCMGSKRSQVSSPCSRKKPRMGQQVLDNFFRSHISTDAHSLNSAAQ

Variants of: B1
Experiment: 8OG:A repair function score (normalized; synonymous = 0, nonsense = -1) (normalized log-likelihood score); higher = more repair activity (WT-like)
Conditions: with 8OG:A DNA repair reporter (GFP) in HEK-293 MUTYH KO cells
Protocol: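 Saturation mutagenesis (NNN codon scan) of the MUTYH cDNA (521-aa nuclear isoform NM_001048174.1 / NP_001041639), stably expressed under doxycycline induction in HEK-293 MUTYH knockout cells. Cells were co-transfected with an 8OG:A-bearing GFP repair reporter plus mCherry and sorted 72 h later into GFP+ and GFP− bins, three replicates per tile. The Rosace log2 enrichment (GFP+ vs GFP−) was converted per tile to a normalized function score with synonymous variants centered at 0 and nonsense variants (codons 1-471) at -1; low-abundance variants were removed.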

8OG:A repair function score of substitutions, site by site:
P44: R -0.0646; K 0.00377; G -0.111; M -0.107; T 0.166; A -0.142; F -0.202; Y -0.212; H -0.0386; N -0.0778; Q -0.113; E -0.0552; S -0.107; D -0.119; L -0.133; C -0.247; I -0.165; V -0.0774; W -0.102
V48: E -0.122; D 0.0961; Y -0.141; C 0.0424; T -0.0154; K 0.119; R 0.0418; P -0.11; N 0.0431; F -0.0263; I 0.0882; M -0.0648; Q 0.0497; L -0.0249; W 0.0774; S -0.0148; H 0.0666; A 0.00435; G 0.0279
Q50: E 0.0122; T -0.147; L -0.0733; W 0.014; D 0.088; Y -0.0626; G -0.0798; N 0.00105; A -0.00978; H -0.0435; V -0.0513; M -0.0659; S 0.0939; F -0.0563; P 0.126; K 0.0673; R 0.0284; I -0.135; C 0.0151
E45: N 0.01; S -0.0822; L -0.0561; T 0.0748; V -0.122; G 0.13; R 0.0409; M 0.00456; D 0.155; C -0.0211; H 0.0965; I -0.0125; P -0.0802; A -0.024; Q -0.0405; Y 0.0286; K -0.0451; F -0.059
E46: H -0.0875; T 0.134; N -0.0764; L -0.211; F 0.0911; G -0.0545; S -0.0996; V 0.0528; W -0.0064; D 0.0496; M -0.119; R 0.0933; Y -0.0657; Q 0.0688; P 0.0495; C 0.0656; A 0.0651; I 0.0225; K -0.0383
F59: H -0.439; I -0.137; N -0.954; T -0.579; V -0.24; M -0.121; P -0.371; K -1.43; E -0.768; G -0.925; W -0.25; Q -0.967; A -0.359; Y -0.161; D -0.583; L -0.095; R -0.753; C -0.367; S -0.561
V47: P -0.0988; D -0.0274; A 0.101; M -0.0812; Q -0.0401; G -0.0668; L -0.135; I 0.0706; T -0.0192; Y -0.0242; W 0.0191; S -0.0698; R -0.00231; E -0.116; K 0.00868; H 0.0522; C 0.0227; N 0.0108; F 0.0442
H57: L -0.734; K -0.664; Q -0.657; P -0.793; Y -0.569; N -0.729; R -0.473; I -0.613; G -0.607; W -1.09; E -0.74; S -0.711; T -0.765; M -1.63; V -0.613; C -0.642; F -0.751; A -0.797; D -0.824
L49: T 0.0602; H 0.0564; Q -0.00358; K -0.236; G -0.027; R 0.00838; N 0.241; S 0.027; E 0.0582; Y -0.0309; P 0.109; C 0.125; F -0.0825; M 0.233; V -0.0831; I -0.0224; D 0.0266; A 0.0219; W -0.109
S52: Y 0.0053; W -0.00265; T 0.00677; M -0.00303; H -0.0255; I -0.0155; G -0.00057; K 0.0066; R 0.00314; F -0.0245; C -0.0302; E -0.00064; D -0.0111; A 0.00623; L 0.00142; V -0.00119; N -0.0834; Q -0.0208; P -0.0118
S54: L 0.00619; K -0.0583; P 0.00682; A 0.00533; Q 0.00389; W -0.423; E 0.00656; R -0.0174; Y 0.00243; V -0.0294; I -0.00479; C 0.00525; M -0.0179; H 0.0058; G 0.00441; D -0.029; N -0.00348; T -0.0217; F -0.0664
S55: F -0.000223; K 0.000876; I -0.0166; N 0.00188; W -0.0142; H -0.00673; Q 0.00445; E -0.00704; T 0.00523; A 0.00283; Y 0.000496; R -0.0153; P -0.274; G 0.00135; V 0.00566; M -0.0231; C -0.043; D 0.00222; L -0.149
V53: W -0.276; E 0.00193; M -0.112; I -0.0188; L -0.024; R 0.00694; S 0.00307; D 0.00694; F -0.00754; P -0.254; A 0.00104; T -0.0126; G -0.0541; Q -0.0248; Y -0.0142; N -0.0892; C 0.000965; H 0.00594; K -0.0093
Y56: I -0.000994; E -0.0123; C -0.0129; P -0.0566; V -0.015; H -0.00595; A -0.0245; T -0.011; N -0.0497; F 0.0047; W 0.00662; L 0.00637; D -0.0985; M 0.00205; S -0.0461; K -0.0455; G -0.0482; R -0.0483; Q -0.0234
L58: P -0.622; K -0.021; C -0.0122; V -0.00997; N 0.00327; S -0.0155; H 0.00605; G 0.00575; M -0.0211; A 0.00209; F 0.00426; D -0.00786; I -0.00475; T -0.0284; E 0.0056; R 0.00693; Q -0.00261; Y -0.0187; W 0.00529
Q43: K 0.0479; S -0.0281; P 0.054; V -0.0464; T 0.0245; N -0.0614; R 0.0791; H 0.0802; I 0.0991; M 0.0733; Y -0.0469; G -0.0204; W -0.0384; L 0.0948; F 0.0374; E 0.0951
A51: R 0.00957; V 0.0738; F -0.116; I -0.041; G -0.0113; Y 0.00468; M -0.607; P 0.142; L -0.036; H 0.0322; Q 0.214; C 0.0297; W 0.101; D 0.029; N -0.00641; K 0.124; E 0.0222; S 0.0659
R60: S 0.00106; N 0.00565; H -0.196; A -0.0135; L 0.00645; G -0.0378; P -0.0757; I -0.0738; K -0.0179; D -0.0771; F -0.0889; Q -0.692; E -0.127; T 0.00688; M 0.00468; C -0.081
